In test [1] the target is T1, human TROP2-his protein (human, UniProt P09758 27-274).
T1 construct: also called biotin labeled human TROP2-his protein
T1 sequence: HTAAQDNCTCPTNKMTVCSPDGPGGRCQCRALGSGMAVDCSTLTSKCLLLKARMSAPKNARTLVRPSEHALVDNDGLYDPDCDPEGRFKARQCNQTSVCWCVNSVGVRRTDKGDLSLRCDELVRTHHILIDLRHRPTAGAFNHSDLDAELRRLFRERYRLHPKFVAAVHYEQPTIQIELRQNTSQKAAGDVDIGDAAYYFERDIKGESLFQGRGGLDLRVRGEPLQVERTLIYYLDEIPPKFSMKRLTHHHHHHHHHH
The test can be described thus: SPR Biacore T200; antibody captured on anti-human IgG CM5 chip, TROP2-his as analyte in 2-fold dilutions from 160 nM; 1:1 Langmuir fit. From the text:
(§1) The purified anti-TROP2 mouse monoclonal antibodies (mAbs) were characterized for binding affinity and binding kinetics by Biacore T200 system (GE healthcare, Pittsburgh, PA, USA). Briefly, goat anti-human IgG (GE healthcare, Cat #BR100839, Human Antibody Capture Kit) was covalently linked to a CM5 chip (carboxy methyl dextran coated chip from GE healthcare #BR100530) via primary amines, using a standard amine coupling kit (GE healthcare, Pittsburgh, PA, USA) provided by Biacore. Un-reacted moieties on the chip (biosensor) surface were blocked with ethanolamine. The anti-TROP2 antibodies of the disclosure and the benchmark at the concentration of 2 μg/ml were respectively flowed onto the chip at a flow rate of 10 μL/min. Then, serially diluted human TROP2-his protein (prepared in-house with SEQ ID NO: 16), or cynomolgus TROP2-his protein (prepared in-house with SEQ ID NO: 19), 2-fold dilution in HBS-EP⁺ buffer (provided by Biacore) starting at 160 nM, were flowed onto the chip at a flow rate of 30 μL/min. The antigen-antibody association kinetics was followed for 2 minutes and the dissociation kinetics was followed for 10 minutes. The association and dissociation curves were fit to a 1:1 Langmuir binding model using BIAcore evaluation software.
Background: In SPR one partner is held on a chip, and binding of the other changes the refractive index at the surface.

In test [2] the target is T2, cynomolgus TROP2-his protein (cynomolgus, UniProt P09758 27-272 (human entry), limits assumed).
T2 construct: also called Cyno TROP2-his; Cynomolgus monkey TROP2-his protein
T2 chain: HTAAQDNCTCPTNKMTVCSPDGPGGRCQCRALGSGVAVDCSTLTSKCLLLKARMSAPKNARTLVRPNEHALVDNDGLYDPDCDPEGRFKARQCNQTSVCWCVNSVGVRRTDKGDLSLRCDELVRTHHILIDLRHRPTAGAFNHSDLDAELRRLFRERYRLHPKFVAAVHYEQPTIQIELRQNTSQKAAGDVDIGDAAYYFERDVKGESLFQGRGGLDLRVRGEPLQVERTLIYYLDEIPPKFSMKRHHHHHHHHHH
The description is as above.
From the text: as §1

Test [3] addresses T1, human TROP2-his protein. The test can be described thus: indirect ELISA on human TROP2; unit taken from the x axis (nM). In general terms: ELISA stands for enzyme-linked immunosorbent assay.
Test [4] addresses T1, human TROP2-his protein. The test can be described thus: indirect ELISA, plate coated with human TROP2-his; unit taken from the x axis (Con of mAb, ng/mL). As to the method: The single domain antibodies of the disclosure were tested in the indirect ELISA for their cross-reaction with cynomolgus TROP2 protein. Briefly, 96-well micro plates were coated with 100 μl 2 μg/ml human TROP2-his protein (prepared in-house with SEQ ID NO: 16) in carbonate/bicarbonate buffer (pH 9.6) overnight at 4° C. ELISA plates were washed once with wash buffer (PBS+0.05% v/v Tween-20, PBST) and then blocked with 200 μl/well blocking buffer (5% w/v non-fatty milk in PBST) for 2 hours at 37° C. Plates were washed 4 times and incubated with 100 μl/well serially diluted anti-TROP2 antibodies of the disclosure or controls (starting at 66.7 nM, 5-fold serial dilution in 2.5% w/v non-fatty milk in PBST) for 40 minutes at 37° C. ELISA plates were washed 4 times again and incubated with Peroxidase AffiniPure F(ab′)₂ Fragment Goat Anti-Human IgG, Fey fragment specific (Jackson Immuno Research, Cat #109-036-098, 1:5000 dilution in PBST buffer, 100 μl/well) for 40 minutes at 37° C. After a final wash, plates were incubated with 100 μl/well TMB (Innoreagents) at room temperature. The reaction was stopped 3-10 minutes later at room temperature with 50 μl/well 1M H₂SO₄, and the absorbance of each well was read on a microplate reader using dual wavelength mode with 450 nm for TMB and 630 nm as the reference wavelength. The OD (450-630) values were plotted against antibody concentration. Data was analyzed using Graphpad Prism software and EC₅₀ values were reported.

In test [5] the target is T1, human TROP2-his protein. The test can be described thus: indirect ELISA, plate coated with 1 ug/ml TROP2-his; bacterial culture supernatant. As to the method:
ELISA plates were coated with 100 μl 1 μg/ml human TROP2-his protein (in house made with SEQ ID NO: 16), or 1 μg/ml cynomolgus TROP2-his protein (in house made with SEQ ID NO: 19) in carbonate/bicarbonate buffer (pH 9.6) overnight at 4° C., washed once with wash buffer (PBS+0.05% v/v Tween-20, PBST) and then blocked with 200 μl/well blocking buffer (5% w/v non-fatty milk in PBST) for 2 hours at 37° C. Plates were washed 4 times, and respectively incubated with 100 μl bacterial culture supernatant, and sacituzumab (used as the benchmark, also referred to as BM or BM1 hereinafter, in house made with heavy chain and light chain amino acid sequences set forth in SEQ ID NOs: 17 and 18) in 5% w/v non-fatty milk in PBST at 200 ng/ml, for 40 minutes at 37° C. The plates were washed 4 times, and incubated with THE™ HA Tag Antibody [HRP], mAb, Mouse Antibody (1:5000 dilution in PBST, GenScript, Cat #A01296, 100 μl/well, for plates with bacterial culture supernatans of the disclosure) or Peroxidase AffiniPure F(ab′)₂ Fragment Goat Anti-Human IgG, Fey fragment specific (Jackson Immunoresearch, Cat #109-036-098, for plates with the benchmark), for 40 minutes at 37° C. After a final wash, plates were incubated with 100 μl/well ELISA substrate TMB (Innoreagents, Cat #TMB-S-002) at room temperature. The reaction was stopped in 3-10 minutes with 50 μl/well 1M H₂SO₄, and the absorbance of each well was read on a microplate reader using dual wavelength mode with 450 nm for TMB and 630 nm as the reference wavelength. When the OD of a sample well was 2 times higher than the OD of the blank well, the sample can be determined as positive.

B1: sacituzumab (benchmark, an analog of sacituzumab, in house made) (antibody, human IgG1, kappa, V domains shown)
VH: SVQLQQSGSELKKPGASVKVSCKASGYTFTNYGMNWVKQAPGQGLKWMGWINTYTGEPTYTDDFKGRFAFSLDTSVSTAYLQISSLKADDTAVYFCARGGFGSSYWYFDVWGQGSLVTVSS
VL: DIQLTQSPSSLSASVGDRVSITCKASQDVSIAVAWYQQKPGKAPKLLIYSASYRYTGVPDRFSGSGSGTDFTLTISSLQPEDFAVYYCQQHYITPLTFGAGTKVEIKR
notes: also called BM; BM1
In the test with human TROP2-his protein [1], B1 came in with a Kd of 0.409 nM, a koff of 0.000116 s⁻¹ and a kon of 284000 M⁻¹ s⁻¹. For the same molecule, in test [2], the Kd was 0.874 nM, the koff was 0.000224 s⁻¹ and the kon worked out at 257000 M⁻¹ s⁻¹. The same molecule yielded an EC50 with human TROP2-his protein [3] of 0.162 nM. This molecule also gave a concentration for a half-maximal effect (EC50) in the test with human TROP2-his protein [4] of 0.0374 µg/mL.

B2: single domain antibody 01-9F (VHH)
VHH: QVQLVESGGGSVQAGGSLRLSCVVSGLPYERYCVAWFRQGPGKEREGVARILSDGTTSYSDSVKGRFTISKDNAKNTLYLQMNSLKSEDTATYYCAAEAFRPFTPSDGDCTTVLGIDYWGKGTPVTVSS
With B2, in the test with human TROP2-his protein [1], the Kd was determined as 0.0262 nM, the off-rate (koff) came out at 8.11e-06 s⁻¹ and the kon amounted to 309000 M⁻¹ s⁻¹. In addition, in test [2], the Kd turned out to be 0.558 nM, the koff is 0.000161 s⁻¹ and the kon turned out to be 287000 M⁻¹ s⁻¹. This molecule also had an EC50 with human TROP2-his protein [3] of 0.104 nM. Also, in the test with human TROP2-his protein [4], the EC50 was determined as 0.0208 µg/mL. Further, in the test with human TROP2-his protein [5], the “Indirect ELISA OD (450-630)” value was 0.97 OD (450-630).

In general, Kd refers to the constant that tells how readily two partners part at equilibrium. Low readings indicate tighter binding, high ones weaker binding. Broadly, the koff is the first-order rate constant of dissociation. Low readings indicate slow dissociation, high ones fast dissociation. Usually kon stands for the second-order rate constant of association. Low values mean slower complex formation, high ones faster complex formation. A word on the EC50: it is the midpoint of the concentration-response curve. Read a high EC50 as lower potency in that assay.

The values above are taken from patent US20230383007A1 (BIOSION, published 2023).
